# T1: (2S,3R)-3-Amino-2-hydroxy-5-methylhexanoyl-Val-Val-Asp (Amastatin)
# T1 chain: VVD
# Key:
# ΔpaaP strain = assay: MIC by E test strips; format: cell-based, P. aeruginosa; settings: E test strip, 37° C. overnight; FIG. 9A
# Procedure: The MIC (minimum inhibition concentration) of ΔpaaP strain to tobramycin and ciprofloxacin, two antibiotics commonly used to treat P. aeruginosa infections, was tested by E test strips. Overnight culture was diluted to OD600˜0.1, and spread on the plate. The E test strip was put onto the plate, cultivated at 37° C. overnight, and the minimum inhibition concentration was recorded according to the E test strip.
# Psl production in PAO1 = assay: Psl production by anti-Psl immunodot blotting; format: cell-based, P. aeruginosa; settings: 5 μM C12-HSL added to culture medium; FIG. 3D
# Procedure: To examine Psl production, exopolysaccharide Psl extracts were collected from overnight cultures equivalent to approximately 10 OD600 and examined by immunodot blotting using an anti-Psi antibody. For the effect of C12-HSL on Psl production, 5 μM C12-HSL was added to the medium after inoculation. The software Image Lab™ was used to quantify the immunodot blotting data.
# LasI directs the synthesis of the QS signal molecular, N-(3-oxododecanoyl)-L-homoserine lactone (C12-HSL). Thus, whether C12-HSL supplement could affect Psl production in PAO1 was examined. […] C12-HSL is usually associated with the transcriptional regulator LasR to active their target genes.
# [1] = system: psl transcription in PAO1; assay: psl transcription detected by psl::gfp reporter plasmid; format: cell-based, P. aeruginosa; settings: 5 μM C12-HSL added to PAO1 culture; FIG. 3E
# [2] = target: T1, (2S,3R)-3-Amino-2-hydroxy-5-methylhexano …
# MJK8 = assay: Dispersal of bacterial aggregates in liquid culture, OD600 read; format: cell-based, P. aeruginosa; settings: 100 nM PslG, Jensen's or LBNS medium, 3 h and 6 h; FIG. 13A, 13B
# Procedure: (§1) PAO1-derived rugose small colony variant (RSCV) strain MJK8 was grown in LBNS at 37° C. 200 rpm overnight. This overnight culture was washed and then inoculated into Jensen's medium or in LBNS medium at 1:50 with or without 100 nM of PslG. Bacterial growth was determined by taking OD600 read at 3 h and 6 h post inoculation. P. stutzeri strain A1501 was firstly grown in LD medium at 30° C. 200 rpm overnight. The overnight culture was washed and inoculated into KLG^+ medium at 1:50 with or without 100 nM of PslG. OD600 was taken at 3 h, 6 h and 30 h post inoculation to monitor the bacterial growth. FIGS. 13A-13C show the comparison of OD600 read with or without PslG treatment of: MJK8 growth in chemically defined Jensen's medium (FIG. 13A); MJK8 growth in LBNS rich medium (FIG. 13B); A1501 growth in KLG^+ medium (FIG. 13C).
# A1501 = assay: as above; format: cell-based, P. stutzeri; settings: 100 nM PslG, KLG+ medium, 3 h, 6 h, 30 h; FIG. 13C
# Procedure: as §1
# PAO1 biofilms = assay: Dispersal of air-liquid interface biofilms and live cell counting by CFU; format: cell-based, P. aeruginosa; settings: 50 nM PslG, 30° C., 1 h, versus tissue homogenate and control; FIG. 14
# Procedure: The PAO1 strain was inoculated on LBNS solid medium plates and overnight incubated at 37° C. Then monoclones of the PAO1, collected from the LBNS solid medium plates, were inoculated in LBNS liquid medium and incubated at 37° C. overnight with shaking at 200 rpm. The culture was washed with PBS for once. Then the culture was inoculated in Jensen's liquid medium at 1:100 (V:V), and incubated at 30° C. in a 24-pore plate. Biofilms were formed at the air-liquid interface. The liquid under the biofilms was removed by a pipettor. The biofilms were washed with PBS for twice so as to remove free bacterial cells that are not embedded in the biofilms. The biofilms were added in PBS for subsequent treatment. For a tissue homogenate treatment group, a sterile glass homogenizer (1 mL) was used to homogenize the biofilms for three times. For PslG treatment group, PslG was added to the biofilms, and the final concentration of PslG is 50 nM. The biofilms were incubated at 30° C. for 1 h. For a control group, no treatment was performed on the biofilms at this stage. Afterwards, the biofilm samples from the tissue homogenate treatment group, the PslG treatment group, and the control group were homogenized using a pipette and then votexed. The biofilm samples were diluted in PBS at 1:10. […] The numbers of live cells in the biofilm samples was determined based on the CFUs.
# [3] = In vitro treatment of Psl extract, elution profile on Sephadex G-50 column; format: biochemical, P. aeruginosa; settings: exogenous-supplied PslG in vitro; FIG. 8B
# Procedure: The Psl extract from biofilm was prepared, fractionated on a Sephadex G-50 column, and irrigated with water at 0.67 ml/min. The total carbohydrate in each fraction (5 ml) was assayed colorimetrically for aldose. Briefly, 200 μl of each fraction was mixed with 100 μl 5% phenol and 500 μl concentrated sulfuric acid, reacted at room temperature for 30 minutes, and measured (OD492).
# To confirm, the Psl extracted from PAO1 biofilms was treated with exogenous-supplied PslG in vitro.
molecule,measurement,setting,value
O=C(O)c1cn(C2CC2)c2cc(N3CCNCC3)c(F)cc2c1=O [ciprofloxacin],"MIC of ΔpaaP, fold lower than PAO1",ΔpaaP strain,8 fold
"CCCCCCCCCC(=O)CC(=O)N[C@H]1CCOC1=O [C12-HSL, N-(3-oxododecanoyl)-L-homoserine lactone]",effect on Psl production,Psl production in PAO1,did increase Psl production in PAO1
same,effect on psl transcription,[1],psl transcription was enhanced
P. aeruginosa aminopeptidase (PaAP) (protein) APSEAQQFTEFWTPGKPNPSICKSPLLVSTPLGLPRCLQASNVVKRLQKLEDIASLNDGNRAAATPGYQASVDYVKQTLQKAGYKVSVQPFPFTAYYPKGPGSLSATVPQPVTYEWEKDFTYLSQTEAGDVTAKVVPVDLSLGAGNTSTSGCEAEDFANFPAGSIALIQRGTCNFEQKAENAAAAGAAGVIIFNQGNTDDRKGLENVTVGESYEGGIPVIFATYDNGVAWSQTPDLQLHLVVDVVRKKTETYNVVAETRRGNPNNVVMVGAHLDSVFEGPGINDNGSGSAAQLEMAVLLAKALPVNKVRFAWWGAEEAGLVGSTHYVQNLAPEEKKKIKAYLNFDMIGSPNFGNFIYDGDGSDFGLQGPPGSAAIERLFEAYFRLRGQQSEGTEIDFRSDYAEFFNSGIAFGGLFTGAEGLKTEEQAQKYGGTAGKAYDECYHSKCDGIANINQDALEIHSDAMAFVTSWLSLSTKVVDDEIAAAGQKAQSRSLQMQKSASQIERWGHDFIK,"PaAP catalytic activity (hydrolysis of Leu-p-nitroanilide, 7 nM PaAP with 10, 20, 30 µM Amastatin or without)",[2],"the Amastatin may inhibit the enzyme activity of PaAP at micromolar concentrations, and the inhibition effect may increase with higher concentration of Amastatin"
PslG: glycosyl hydrolase of P. aeruginosa that degrades the Psl exopolysaccharide matrix; amino acid sequence SEQ ID NO: 6 (protein) EIQVLKAPRAVVWKDFLGVNAQFLWFSPERYNKQIDRLQDLGLEWVRLDLHWDRLETAEDQYQLASLDQLVKDLEARQLKSVFYLVGSARFITTAPFYSPFQDQYPPRDPEVFARRMAMLSQRYPSVAAWQVWNEPNLIGFWRPKADPEGYAKLLQASTIALRMVDPEKPVVSAGMAFFSEMPDGRTMFDALGHLGVESLGTIATYHPYTQLPEGNYPWNLDFVSHANQINRALRNAGVPAIWSTEWGWSAYKGPKELQDIIGVEGQADYVLRRLALMSALDYDRIFLFTLSDLDQRASVRDRDYGLLDLDANPKPVYLALQRFLKVTGPKLRPADPPVTEDLPDGSFSIGWTREDGRNVWLFWSARGGNVRLPKLKEATLHDPLSGKVTPLSGSDGLEVPVKSSLQMLVWE,dispersal of flocs in liquid culture,MJK8,can disperse the flocs of MJK8 and A1501 in liquid culture
same,dispersal of flocs in liquid culture,A1501,can disperse the flocs of MJK8 and A1501 in liquid culture
same,number of detected CFUs for treated biofilms,PAO1 biofilms,"significantly greater than the number of detected CFUs for the biofilms treated by tissue homogenate, and the biofilms in the control group"
same,elution profile of PslG-degraded Psl,[3],showed a very similar profile as Psl extracted from the ΔpaaP biofilm

# — patent US20190083619A1, “METHODS AND COMPOSITIONS FOR REMOVING, REDUCING, DISPERSING, DISRUPTING OR ERADICATING BIOFILMS AND DETERMINING THE NUMBER OF BACTERIAL POPULATION IN BIOFILM OR A CULTURE CONTAINING BACTERIAL AGGREGATE” (INSTITUTE OF MICROBIOLOGY, CHINESE ACADEMY OF SCIENCES, priority 2017, published 2019)
